Experiment [1] deals with T1, Cyno FRα ECD-Avi-His (cynomolgus monkey, biotin on the Avi-tag (BirA) in the HTRF assays).
T1 construct: Soluble region with C-terminal Avi and His tags
Nature of the experiment: SPR (Biacore T200, 25°C); antibody captured on Protein A, FRα ECD as analyte. As to the method:
(§1) Protein A was covalently immobilised to a CM5 chip surface using standard amine coupling techniques at a concentration of 50 μg/ml in 10 mM Sodium acetate, pH 4.0. The antibody was captured onto the Protein A surface in HBS-EP+ buffer, pH 7.4 at 10 μl/min to enable FRα ECD binding. The FRα ECD was serially diluted (0.4 nM-100 nM human FRα ECD; 0.8 nM-200 nM cyno FRα ECD; 30 nM-4000 nM mouse FRα ECD and rat FRα ECD) in HBS-EP+ buffer, pH 7.4 and flowed over the chip at 50 μl/min, with 2 minutes association and 8 minutes dissociation. The chip surface was fully regenerated with pulses of 3 M MgCl₂ to remove captured antibody together with any bound FRα ECD. Multiple buffer-only injections were made under the same conditions to allow for double reference subtraction of the final sensorgram sets, which were analysed using Biacore T200 Evaluation Software to derive equilibrium dissociation constants.
On the technique in general: In SPR one partner is held on a chip, and binding of the other changes the refractive index at the surface.

Experiment [2] addresses T2, Mouse FRα ECD-Avi-His (mouse, biotin on the Avi-tag (BirA) in the HTRF assays).
T2 construct: Soluble region with C-terminal Avi and His tags
Briefly: HTRF antigen binding assay; hybridoma supernatant, 1 nM biotinylated antigen. As to the method: (§2) HTRF assays were performed in 384-well white shallow well non-binding plates (Corning, 4513) in assay buffer containing phosphate-buffered saline (PBS) (Life Technologies, 14190), 0.100 v/v bovine serum albumin (BSA) (Sigma, A9576), and 0.4 M potassium fluoride (VWR International, 26820).
(§3) Supernatants containing mouse IgG from hybridoma cells were incubated at a final assay dilution of 25% with 0.5 nM streptavidin-cryptate (CisBio, 610SAKLB), anti-mouse IgG AF647 (Jackson ImmunoResearch, 115-605-164) and 1 nM biotinylated human FRα, cyno FRα, mouse FRα, human FRβ or human FRγ to give a final assay volume of 10 μl, for 4 hours at room temperature before fluorescence was measured.
On the technique in general: In TR-FRET formats the signal depends on donor and acceptor labels being close together.

Experiment [3] has as its target T3, Human FRβ ECD-Avi-His (human, biotin on the Avi-tag (BirA) in the HTRF assays).
T3 construct: Soluble region with C-terminal Avi and His tags; also called Human FRß
The experiment is described as above. As to the method: as §2, §3

Experiment [4] has as its target T4, Human FRγ ECD-Avi-His (human, biotin on the Avi-tag (BirA) in the HTRF assays).
T4 construct: Soluble region with C-terminal Avi and His tags
The experiment is described as above. As to the method:
as §2, §3

Experiment [5] deals with T1, Cyno FRα ECD-Avi-His. Nature of the experiment: SPR (Biacore T200). As to the method:
as §1

Experiment [6] deals with T5, Human FRα ECD-Avi-His (human, biotin on the Avi-tag (BirA) in the HTRF assays).
T5 construct: also called biotinylated human FRα; folate receptor alpha
Briefly: MOv19 HTRF epitope competition assay; accelerated stability study.

The target of experiment [7] is T5, Human FRα ECD-Avi-His. Briefly: SPR (Biacore T200, 25°C); antibody captured on Protein A, FRα ECD as analyte. As to the method: as §1
Experiment [8] has as its target T5, Human FRα ECD-Avi-His. Briefly: MOv19 HTRF epitope competition assay, geomean; IgG kept 2 weeks at 4°C; competitor MOv19.
For experiment [9], the target named is T5, Human FRα ECD-Avi-His. Briefly: MOv19 HTRF epitope competition assay, geomean; IgG kept 2 weeks at 45°C; competitor MOv19.
The target of experiment [10] is T5, Human FRα ECD-Avi-His. Nature of the experiment: HTRF epitope competition assay, geomean n>2; competitor DyLight 650 labelled Comparator Antibody 1. As to the method: as §2
(§4) HTRF epitope competition assays were set up using a titration of test IgG, 1 nM streptavidin cryptate, biotinylated human FRα and DyLight 650 labelled IgG to assay volume of 10 μl. […] Assay plates were incubated for 3-4 h at room temperature prior to fluorescence measurement.

For experiment [11], the target named is T5, Human FRα ECD-Avi-His. Nature of the experiment: HTRF epitope competition assay, geomean n>2; competitor DyLight 650 labelled Comparator Antibody 2. As to the method: as §2, §4

The source of these data is US20230295293A1 (published 2023).

T5 sequence (chain, as listed by the source limits assumed): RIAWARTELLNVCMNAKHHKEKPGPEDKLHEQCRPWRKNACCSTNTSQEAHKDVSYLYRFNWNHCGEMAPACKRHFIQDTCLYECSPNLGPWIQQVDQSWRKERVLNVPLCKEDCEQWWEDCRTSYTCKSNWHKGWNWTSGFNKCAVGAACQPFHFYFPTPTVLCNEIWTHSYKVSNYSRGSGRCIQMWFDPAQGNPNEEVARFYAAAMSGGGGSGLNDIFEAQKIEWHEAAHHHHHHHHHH
T2 sequence (chain, as listed by the source limits assumed): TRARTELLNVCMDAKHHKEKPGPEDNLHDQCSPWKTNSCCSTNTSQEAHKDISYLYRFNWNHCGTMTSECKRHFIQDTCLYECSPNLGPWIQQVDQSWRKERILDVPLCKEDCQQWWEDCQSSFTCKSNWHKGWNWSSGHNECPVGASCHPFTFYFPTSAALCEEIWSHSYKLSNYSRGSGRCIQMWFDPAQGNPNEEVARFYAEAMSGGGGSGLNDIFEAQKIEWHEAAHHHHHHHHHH
T3 sequence (chain, as listed by the source limits assumed): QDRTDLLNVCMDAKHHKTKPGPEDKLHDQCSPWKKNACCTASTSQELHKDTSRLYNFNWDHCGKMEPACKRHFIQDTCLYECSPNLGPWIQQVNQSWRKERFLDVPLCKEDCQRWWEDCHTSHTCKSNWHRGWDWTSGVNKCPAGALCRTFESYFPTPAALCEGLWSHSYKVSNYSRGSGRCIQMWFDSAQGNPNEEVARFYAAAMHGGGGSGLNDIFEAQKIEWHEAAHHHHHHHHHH
T4 sequence (chain, as listed by the source limits assumed): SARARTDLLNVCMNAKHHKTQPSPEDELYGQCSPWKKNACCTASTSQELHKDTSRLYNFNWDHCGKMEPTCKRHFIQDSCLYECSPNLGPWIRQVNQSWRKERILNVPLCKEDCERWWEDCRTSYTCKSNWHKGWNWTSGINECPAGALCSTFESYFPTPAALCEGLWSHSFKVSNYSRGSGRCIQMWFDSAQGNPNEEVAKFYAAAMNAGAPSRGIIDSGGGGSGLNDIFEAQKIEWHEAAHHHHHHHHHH
T1 sequence (chain, as listed by the source limits assumed): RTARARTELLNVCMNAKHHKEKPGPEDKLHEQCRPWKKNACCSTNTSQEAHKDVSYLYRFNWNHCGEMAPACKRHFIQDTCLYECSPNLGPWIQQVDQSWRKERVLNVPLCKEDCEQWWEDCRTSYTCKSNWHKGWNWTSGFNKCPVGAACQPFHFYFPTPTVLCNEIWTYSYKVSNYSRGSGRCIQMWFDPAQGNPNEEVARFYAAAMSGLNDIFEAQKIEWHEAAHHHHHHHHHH

B1: AB1370049 hIgG1 (antibody, V domains shown)
VH: LVQLQQSGPGLVKPSQTLSLTCAISGDSVSSDSATWNWIRQSPSRGLEWLGRTYYRSKWYNDYAVSVKSRITINPDTSKNQFSLQLNSVTPEDTAVYYCARGVGSFDYWGQGTLVTVSS
VL: not shown
By Kd is commonly meant the free concentration of one partner at which half of the binding sites on the other are occupied at equilibrium, for simple one-to-one binding. Low values mean higher affinity, high ones lower affinity. On to B1, for which the Kd in [1] stood at 36900 pM.

B2: AB1370117 (hybridoma IgG) (antibody, V domains shown)
VH: QVQLQQSGPGLVKPSQTLSLTCAISGDSVSSDSATWNWIRQSPSRGLEWLGRTYYRSKWYSDYAVSVKSRITINPDTSKNQFSLQLNSVTPEDTAVYFCARGGAPFDYWGQGTLVTVSS
VL: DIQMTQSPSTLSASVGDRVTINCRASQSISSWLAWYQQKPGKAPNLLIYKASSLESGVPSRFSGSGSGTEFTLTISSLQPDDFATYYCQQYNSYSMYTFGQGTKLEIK
notes: IgG from hybridoma of Del-1 humanised mouse, tested as supernatant ('mouse IgG', detected with anti-mouse IgG) or Phynexus purified
Consider B2, for which the binding result in experiment [2], in experiment [3] and in [4] was “no binding” each time.

B3: AB1370049 (hybridoma IgG) (antibody, V domains shown)
VH: LVQLQQSGPGLVKPSQTLSLTCAISGDSVSSDSATWNWIRQSPSRGLEWLGRTYYRSKWYNDYAVSVKSRITINPDTSKNQFSLQLNSVTPEDTAVYYCARGVGSFDYWGQGTLVTVSS
VL: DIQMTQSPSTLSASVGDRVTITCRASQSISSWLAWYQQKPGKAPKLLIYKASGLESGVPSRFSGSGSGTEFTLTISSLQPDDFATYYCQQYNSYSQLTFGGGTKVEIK
notes: as for B2
Take B3: the binding result in [2], in [3] and in [4] was “no binding” throughout.

B4: AB1370035 (hybridoma IgG) (antibody, V domains shown)
VH: QVQLQQSGPGLVKPSQTLSLTCAISGDSVSSNSAAWNWIRQSPSRGLEWLGRTYYRSNWYNDYTLSVKSRITVNPDTSKNQFSLQLNSVTPEDTAVYYCVRGVGRFDSWGQGTLVTVSS
VL: DIQMTQSPSTLSASVGDRVIITCRASQSISSWLAWYQQKPGKAPKLLIYKASSLESGVPSRFSGSGSGTEFTLTITSLQPDDFASYYCQEYKTYSIFTFGPGTKVDIK
notes: as for B2
Turning to B4, the binding result in experiment [2], in experiment [3] and in experiment [4] was “no binding” throughout.

B5: AB1370083 (hybridoma IgG) (antibody, V domains shown)
VH: EVQLVESGGGLVKPGGSLRLSCAASGFTFSSYNMNWVRQAPGKGLEWVSSISSGSSYIYYADSMKGRFTISRDNAKNSLFLQMNSLRAEDTAVYYCARGMTTLTFDYWGQGTLVTVSS
VL: DIQMTQSPSSLSASVGDRVTITCRASQGISTFLAWFQQKPGKAPKSLIYAASSLQSGVPSKFSGSGSETDFTLTISSLQPEDFATYYCQQYISYPLTFGGGTKVEIK
notes: as for B2
For the molecule B5, the binding result in experiment [2], in experiment [3] and in experiment [4] was “no binding” in each case.

B6: AB1370095 (hybridoma IgG) (antibody, V domains shown)
VH: EVQLVESGGGLVKPGGSLRLSCAASGFTFSSYSMNWVRQAPGKGLEWVSSISSRSSYVYYADSVKGRFTISRDNAKNSLYLQMNSLRAEDTAVYYCARGMTTLTFDYWGQGTLVTVSS
VL: DIQMTQSPSSLSASVGDRVTITCRASQGISSFLAWFQQKPGKAPKSLIYAASSLQSGVPSKFSGSGSGTDFTLTISSLQPEDFATYYCQQYNSYPLTFGGGTKVEIK
notes: as for B2
For the molecule B6, the binding result in [2], in experiment [3] and in [4] was “no binding” throughout.

B7: AB1370026 hIgG1 (antibody, V domains shown)
VH: EVQLVESGGGLVKPGGSLRLSCAASGFTFSSYAMSWVRQAPGKGLEWVSSISSGRSYIYYADSVKGRFTISRDNAKNSLYLKMNSLRDEDTAVYYCAREMQQLALDYWGQGTLVTVSS
VL: DIQMTQSPSSLSASVGDRVTITCRASQGISNFLAWFQQAPGKAPKSLIYAASSLQSGVPSKFSGSGSGTDFTLTISSLQPEDFATYYCQQYNSYPFTFGQGTKLEIKR
Broadly, the koff is a measure of how fast the partners let go of each other. The low end stands for a long-lived complex, the high end for a short-lived complex. By kon is commonly meant the second-order rate constant of association. Read a high kon as fast association. As a reminder, the IC50 is the concentration that inhibits the measured activity by half. Read a low IC50 as greater potency in that assay. On to B7, for which the “fold difference of affinity, cyno FRα against human FRα” value (shortened to “fold difference of affinity, cyno FRα”) in experiment [5] is ≤ 2.5 fold. Also, the “fold difference (IC50 45°C against 4°C)” value in [6] came out at 1 fold. For the same molecule, the Kd in [7] is 1300 pM; in [1] it was 1800 pM. The values for the koff in [7] and in experiment [1] were 0.000354 s⁻¹ and 0.000342 s⁻¹, respectively. The kon in experiment [7] was found to be 279000 M⁻¹ s⁻¹; in [1], 195000 M⁻¹ s⁻¹. In addition, the IC50 was determined as 711 pM in experiment [8], 708 pM in experiment [9], 32 pM in [10] and 177 pM in experiment [11].

B8: AB1370026 (hybridoma IgG) (antibody, V domains shown)
VH: EVQLVESGGGLVKPGGSLRLSCAASGFTFSSYAMSWVRQAPGKGLEWVSSISSGRSYIYYADSVKGRFTISRDNAKNSLYLKMNSLRDEDTAVYYCAREMQQLALDYWGQGTLVTVSS
VL: DIQMTQSPSSLSASVGDRVTITCRASQGISNFLAWFQQAPGKAPKSLIYAASSLQSGVPSKFSGSGSGTDFTLTISSLQPEDFATYYCQQYNSYPFTFGQGTKLEIK
notes: as for B2
With B8, the binding result in experiment [2], in experiment [3] and in [4] was “no binding” each time.

B9: AB1370083 hIgG1 (antibody, V domains shown)
VH: EVQLVESGGGLVKPGGSLRLSCAASGFTFSSYNMNWVRQAPGKGLEWVSSISSGSSYIYYADSMKGRFTISRDNAKNSLFLQMNSLRAEDTAVYYCARGMTTLTFDYWGQGTLVTVSS
VL: DIQMTQSPSSLSASVGDRVTITCRASQGISTFLAWFQQKPGKAPKSLIYAASSLQSGVPSKFSGSGSETDFTLTISSLQPEDFATYYCQQYISYPLTFGGGTKVEIKR
Take B9: the “fold difference of affinity, cyno FRα” value in experiment [5] was ≤ 2.5 fold. In addition, the “fold difference (IC50 45°C against 4°C)” value in [6] was 1.3 fold. The Kd amounted to 930 pM in experiment [7] and 1560 pM in experiment [1]. The koff in [7] came to 0.000135 s⁻¹; in experiment [1], 0.00016 s⁻¹. Also, the kon was determined as 145000 M⁻¹ s⁻¹ in experiment [7] and 101000 M⁻¹ s⁻¹ in experiment [1]. Moreover, the IC50 was determined as 51.1 pM in experiment [8], 66.5 pM in experiment [9], 29.6 pM in experiment [10] and 80.6 pM in experiment [11].

B10: AB1370095 hIgG1 (antibody, V domains shown)
VH: EVQLVESGGGLVKPGGSLRLSCAASGFTFSSYSMNWVRQAPGKGLEWVSSISSRSSYVYYADSVKGRFTISRDNAKNSLYLQMNSLRAEDTAVYYCARGMTTLTFDYWGQGTLVTVSS
VL: DIQMTQSPSSLSASVGDRVTITCRASQGISSFLAWFQQKPGKAPKSLIYAASSLQSGVPSKFSGSGSGTDFTLTISSLQPEDFATYYCQQYNSYPLTFGGGTKVEIKR
For B10, the “fold difference of affinity, cyno FRα” value in [5] was ≤ 2.5 fold. For the same molecule, the “fold difference (IC50 45°C against 4°C)” value in experiment [6] was determined as 0.85 fold. Moreover, the Kd in experiment [7] amounted to 13500 pM; in [1], 19100 pM. Besides, the results for the koff in experiment [7] and in experiment [1] were 0.00129 s⁻¹ and 0.00183 s⁻¹, respectively. Further, the kon in experiment [7] was 95700 M⁻¹ s⁻¹; in [1], 95800 M⁻¹ s⁻¹. Besides, the IC50 in [8] worked out at 5070 pM; in experiment [9], 4310 pM; in [10], 363 pM; in experiment [11] it was 4150 pM.
